Legend:
[1] = tested on: HDAC4 expressed in Saccharomyces cerevisiae from a constitutively active promoter (pNOP)
[2] = tested on: flag tagged HDAC4 (overexpressed in neonatal rat cardiomyocytes)

| Substance | cleavage of HDAC4 in Saccharomyces cerevisiae, westernblot analysis [1] | HDAC4 cleavage, immunoblot [2] |
| --- | --- | --- |
| ABHD5 expressed in Saccharomyces cerevisiae from a Galactose inducible promoter (pGAL) | By overexpression either together or with backbone vector in Saccharomyces cerevisiae we found cleavage of HDAC4, confirmed by westernblot analysis. | – |
| gfp tagged abhd5 (adenoviral overexpression in neonatal rat ventricular myocytes) | – | Overexpressed flag tagged HDAC4 was cleaved whenever gfp tagged abhd5 was coexpressed. |

Source: patent US20180258407
